Source: the supplement of paper PMC7877785
± gives the uncertainty stated by the source.

Assay: self-splicing fitness, log relative to wild type (ln ratio); higher = more splicing; Tetrahymena group I intron in knt gene, E. coli kanamycin selection, DiMSum; sequences stand for … in CUCUCU…GGAGGGAAAAGUUAUCAGGCAUGCACCUGGUAGCUAGUCUUUAAACCAAUAGAUUGCAUCGGUUUAAAAGGCAAGACCGUCAAAUUGCGGGAAAGGGGUCAACAGCCGUUCAGUACCAAGUCUCAGGGGAAACUUUGAGAUGGCCUUGCAAAGGGUAUGGUAAUAAGCUGACGGACAUGGUCCUAACCACGCAGCCAAGUCCUAAGUCAACAGAUCUUCUGUUGAUAUGGAUGCAGUUCACAGACUAAAUGUCGGUCGGGGAAGAUGUAUUCUUCUCAUAAGAUAUAGUCGGACCUCUCCUUAAUGGGAGCUAGCGGAUGAAGUGAUGCAACACUGGAGCCGCUGGGAACUAAUUUGUAUGCGAAAGUAUAUUGAUUAGUUUUGGAGUACUCGUGGUCG
Summary of the method: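 Library with all eight P1ex-region intron nucleotides randomised, intron inside the knt kanamycin-resistance gene on pET-22b(+), in E. coli BL21(DE3). Cells grew overnight at 37°C or 30°C on LB agar with or without 25 μg/mL kanamycin (plus 100 μg/mL carbenicillin, 50 μM IPTG, 0.2% rhamnose), in six replicate transformations. Pooled colonies were amplicon-sequenced on Illumina HiSeq 2500. DiMSum fitness is the error-weighted combination of wild-type-normalised replicate fold changes, kanamycin versus none.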

Row | Sequence | self-splicing fitness (ln) (30 °C) | self-splicing fitness (ln) (37 °C)
1 | ACGCAGCAAUAUUACGUAGA | -2.99 ± 0.16 | -2.53 ± 0.21
2 | ACGCAGCAAUAUUACGUAUG | -4.32 ± 0.22 | -2.54 ± 0.16
3 | ACGCAGCAAUAUUACGUCUG | -2.44 ± 0.14 | -2.5 ± 0.28
4 | ACGCAGCAAUAUUACGUGAA | -2.62 ± 0.15 | -1.01 ± 0.13
5 | ACGCAGCAAUAUUACGUGCA | -1.58 ± 0.076 | -0.0655 ± 0.083
6 | ACGCAGCAAUAUUACGUGUA | -2.93 ± 0.11 | -1.6 ± 0.082
7 | ACGCAGCAAUAUUACGUUAU | -3.13 ± 0.12 | -2.12 ± 0.15
8 | ACGGAGCAAUAUUACGAGCA | -3.2 ± 0.34 | 
9 | ACGGAGCAAUAUUACGAGCG | -2.76 ± 0.28 | -1.59 ± 0.2
10 | ACGGAGCAAUAUUACGCACA | -2.08 ± 0.36 | -2.46 ± 0.37
11 | ACGGAGCAAUAUUACGCAGC | -3.02 ± 0.3 | 
12 | ACGGAGCAAUAUUACGCCCA | -2.81 ± 0.43 | -1.92 ± 0.37
13 | ACGGAGCAAUAUUACGCGGG | -2.3 ± 0.18 | -0.332 ± 0.15
14 | ACGGAGCAAUAUUACGCUAA |  | 0.642 ± 0.24
15 | ACGGAGCAAUAUUACGCUGU |  | -2.56 ± 0.25
16 | ACGGAGCAAUAUUACGGGGC | -3.39 ± 0.35 | -3.86 ± 0.46
17 | ACGGAGCAAUAUUACGGUGA | -3.69 ± 0.23 | -1.55 ± 0.21
18 | ACGGAGCAAUAUUACGUAAC | -3.72 ± 0.37 | -1.66 ± 0.22
19 | ACGGAGCAAUAUUACGUGCA |  | -1.4 ± 0.22
20 | ACGGAGCAAUAUUACGUGCU | -2.34 ± 0.19 | 

Row | Sequence | self-splicing fitness (ln) (30 °C) | self-splicing fitness (ln) (37 °C)
21 | ACGGAGCAAUAUUACGUGGA | -3.74 ± 0.37 | -2.26 ± 0.24
22 | ACGGAGCAAUAUUACGUUGA | -2.94 ± 0.2 | -2.29 ± 0.21
23 | ACGGAGCAAUAUUACGUUGC |  | -3.12 ± 0.4
24 | ACGUAGCAAUAUUACGACCG | -0.218 ± 0.1 | 0.0549 ± 0.12
25 | ACGUAGCAAUAUUACGAGCC | -3.28 ± 0.35 | -2.55 ± 0.44
26 | ACGUAGCAAUAUUACGAGCG | -1.53 ± 0.11 | -0.668 ± 0.12
27 | ACGUAGCAAUAUUACGAUGG | -3.99 ± 0.35 | -1.52 ± 0.29
28 | ACGUAGCAAUAUUACGCACG | -2.31 ± 0.2 | -1.98 ± 0.19
29 | ACGUAGCAAUAUUACGCAUC | -3.3 ± 0.22 | -0.518 ± 0.29
30 | ACGUAGCAAUAUUACGCCUA | -0.946 ± 0.1 | -0.412 ± 0.099
31 | ACGUAGCAAUAUUACGCCUG | -1.29 ± 0.077 | 0.00322 ± 0.11
32 | ACGUAGCAAUAUUACGCGCU | -1.89 ± 0.11 | -0.586 ± 0.16
33 | ACGUAGCAAUAUUACGCUAA | -1.84 ± 0.21 | -0.48 ± 0.13
34 | ACGUAGCAAUAUUACGCUGG | -2.32 ± 0.18 | -2.64 ± 0.41
35 | ACGUAGCAAUAUUACGCUUA | -1.49 ± 0.11 | -0.764 ± 0.12
36 | ACGUAGCAAUAUUACGGACU | -2.66 ± 0.3 | -0.29 ± 0.24
37 | ACGUAGCAAUAUUACGGCUG | -3.21 ± 0.28 | -1.83 ± 0.25
38 | ACGUAGCAAUAUUACGGGAU | -2.67 ± 0.16 | -1.97 ± 0.16
39 | ACGUAGCAAUAUUACGGGCU | -1.15 ± 0.063 | -1.18 ± 0.1
40 | ACGUAGCAAUAUUACGGGUC | -3.56 ± 0.19 | -3.42 ± 0.25
